Reference: the supplement of paper PMC7877785
± gives the uncertainty stated by the source.

Assay: self-splicing fitness, log relative to wild type (ln ratio); higher = more splicing; Tetrahymena group I intron in knt gene, E. coli kanamycin selection, DiMSum; sequences stand for … in CUCUCU…GGAGGGAAAAGUUAUCAGGCAUGCACCUGGUAGCUAGUCUUUAAACCAAUAGAUUGCAUCGGUUUAAAAGGCAAGACCGUCAAAUUGCGGGAAAGGGGUCAACAGCCGUUCAGUACCAAGUCUCAGGGGAAACUUUGAGAUGGCCUUGCAAAGGGUAUGGUAAUAAGCUGACGGACAUGGUCCUAACCACGCAGCCAAGUCCUAAGUCAACAGAUCUUCUGUUGAUAUGGAUGCAGUUCACAGACUAAAUGUCGGUCGGGGAAGAUGUAUUCUUCUCAUAAGAUAUAGUCGGACCUCUCCUUAAUGGGAGCUAGCGGAUGAAGUGAUGCAACACUGGAGCCGCUGGGAACUAAUUUGUAUGCGAAAGUAUAUUGAUUAGUUUUGGAGUACUCGUGGUCG
In short: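 Library with all eight P1ex-region intron nucleotides randomised, intron inside the knt kanamycin-resistance gene on pET-22b(+), in E. coli BL21(DE3). Cells grew overnight at 37°C or 30°C on LB agar with or without 25 μg/mL kanamycin (plus 100 μg/mL carbenicillin, 50 μM IPTG, 0.2% rhamnose), in six replicate transformations. Pooled colonies were amplicon-sequenced on Illumina HiSeq 2500. DiMSum fitness is the error-weighted combination of wild-type-normalised replicate fold changes, kanamycin versus none.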

Sequence	self-splicing fitness (ln) (30 °C)	self-splicing fitness (ln) (37 °C)
UCGAAGCAAUAUUACGCGGA	-3.61 ± 0.39	-1.35 ± 0.17
GUUGAGCAAUAUUACGCGUA	-3.48 ± 0.47	-0.589 ± 0.18
ACCGAGCAAUAUUACGGUUA	-1.33 ± 0.18	-1.85 ± 0.17
GCCAAGCAAUAUUACGGUAU	-1.62 ± 0.069	0.416 ± 0.076
CCCAAGCAAUAUUACGCAAU	-4.46 ± 0.31	-1.16 ± 0.17
AAACAGCAAUAUUACGUGAA	-1.92 ± 0.073	-0.646 ± 0.072
UAGGAGCAAUAUUACGAGGC	-2.87 ± 0.17	-3 ± 0.29
CCCCAGCAAUAUUACGCCGA	–	-2.04 ± 0.25
UGGAAGCAAUAUUACGUAUC	-3.27 ± 0.27	-2.28 ± 0.27
GCGGAGCAAUAUUACGCCUC	-3.43 ± 0.38	-1.06 ± 0.36
ACAGAGCAAUAUUACGCUCC	–	-1.45 ± 0.42
AGUGAGCAAUAUUACGCUUU	-4.07 ± 0.32	-3.04 ± 0.4
UCUAAGCAAUAUUACGUCGA	-0.33 ± 0.088	0.0723 ± 0.11
UACUAGCAAUAUUACGGCCC	-1.47 ± 0.16	-2.36 ± 0.28
ACCGAGCAAUAUUACGCACC	-2.84 ± 0.22	-1.08 ± 0.21
UCCUAGCAAUAUUACGCAAU	-2.64 ± 0.21	-2.05 ± 0.25
AAAGAGCAAUAUUACGCCAA	-1.26 ± 0.21	–
UUGGAGCAAUAUUACGACAA	-1.07 ± 0.16	-0.647 ± 0.18
CUACAGCAAUAUUACGCAGC	-2.28 ± 0.24	-1.75 ± 0.36
AUUUAGCAAUAUUACGCCCU	0.0873 ± 0.082	0.37 ± 0.11
UUAAAGCAAUAUUACGGCCA	-0.086 ± 0.13	-0.188 ± 0.17
UAUUAGCAAUAUUACGCGCU	-0.731 ± 0.15	-0.558 ± 0.18
GUGGAGCAAUAUUACGUGUC	-3.84 ± 0.22	-2.64 ± 0.24
UAGAAGCAAUAUUACGUCCU	-0.903 ± 0.12	-0.0829 ± 0.17
AUUGAGCAAUAUUACGAGCG	-3.1 ± 0.27	–
AAAGAGCAAUAUUACGGACU	-1.36 ± 0.12	-1.59 ± 0.16

Sequence	self-splicing fitness (ln) (30 °C)	self-splicing fitness (ln) (37 °C)
CUAAAGCAAUAUUACGUUUC	-3.78 ± 0.18	-2.69 ± 0.23
UCCAAGCAAUAUUACGAUGC	-2.69 ± 0.31	–
CGUUAGCAAUAUUACGUAAG	-0.652 ± 0.1	-0.0337 ± 0.14
UCUCAGCAAUAUUACGGUGA	-1.8 ± 0.13	-1.14 ± 0.12
AGAAAGCAAUAUUACGCACG	-0.407 ± 0.18	-0.88 ± 0.22
CGUCAGCAAUAUUACGUAAC	-3.29 ± 0.35	-2.29 ± 0.26
ACGGAGCAAUAUUACGUCCC	-1.47 ± 0.25	-0.893 ± 0.2
AGAUAGCAAUAUUACGGAGU	-3.25 ± 0.15	-2.33 ± 0.15
GUGUAGCAAUAUUACGUCCU	-0.899 ± 0.15	-0.148 ± 0.19
CAGGAGCAAUAUUACGAGAA	–	-0.522 ± 0.22
UAACAGCAAUAUUACGCGAC	-3.97 ± 0.29	-2.05 ± 0.16
CACGAGCAAUAUUACGGAGU	-4.82 ± 0.32	-3.69 ± 0.24
AGAUAGCAAUAUUACGUUGA	-3.51 ± 0.24	-1.5 ± 0.14
AAUCAGCAAUAUUACGCCUU	0.109 ± 0.082	0.0213 ± 0.1
CUACAGCAAUAUUACGCACG	-0.609 ± 0.07	0.378 ± 0.08
CUGGAGCAAUAUUACGCCUC	–	-1.07 ± 0.47
AAUAAGCAAUAUUACGCAAA	-1.62 ± 0.23	-2.05 ± 0.25
ACACAGCAAUAUUACGGCUA	-0.536 ± 0.071	-0.218 ± 0.074
CCUUAGCAAUAUUACGACAG	-1.81 ± 0.11	-0.864 ± 0.14
UAGGAGCAAUAUUACGAUUA	-0.679 ± 0.065	0.31 ± 0.094
AACGAGCAAUAUUACGAAAU	-3.74 ± 0.29	-2.26 ± 0.21
CGUGAGCAAUAUUACGAGCG	-3.57 ± 0.3	-2.52 ± 0.29
GUAGAGCAAUAUUACGUCCC	-1.01 ± 0.37	0.144 ± 0.41
AACAAGCAAUAUUACGCGCA	-0.604 ± 0.066	0.104 ± 0.094
AUCCAGCAAUAUUACGGGAG	-1.63 ± 0.066	-1.32 ± 0.074
CAUCAGCAAUAUUACGUCUU	-3.53 ± 0.14	-2.19 ± 0.12

Sequence	self-splicing fitness (ln) (30 °C)	self-splicing fitness (ln) (37 °C)
CAUGAGCAAUAUUACGGAUC	–	-2.94 ± 0.33
AACAAGCAAUAUUACGUAUA	-2.4 ± 0.13	-1.59 ± 0.12
GUUUAGCAAUAUUACGAUAG	-3.5 ± 0.32	-1.88 ± 0.31
UGGUAGCAAUAUUACGUUAA	-3.27 ± 0.21	-1.78 ± 0.17
UUUCAGCAAUAUUACGUCAC	-3.13 ± 0.43	-2.86 ± 0.35
GCUUAGCAAUAUUACGACUU	0.0581 ± 0.092	0.248 ± 0.1
UUUAAGCAAUAUUACGAGAC	-2.33 ± 0.48	-2.63 ± 0.33
ACGUAGCAAUAUUACGAUAU	-1.39 ± 0.1	-1.04 ± 0.15
CCGGAGCAAUAUUACGGUAU	-4.05 ± 0.2	-3.34 ± 0.22
AGUAAGCAAUAUUACGCGUA	-1.73 ± 0.15	-0.118 ± 0.16
UAUAAGCAAUAUUACGGUGU	-2.97 ± 0.26	-1.34 ± 0.18
UAUUAGCAAUAUUACGCAUG	-0.961 ± 0.081	-0.197 ± 0.11
CUGCAGCAAUAUUACGUAAA	-3.28 ± 0.14	-1.19 ± 0.14
CACUAGCAAUAUUACGGAUG	-2.42 ± 0.083	-1.39 ± 0.079
ACUGAGCAAUAUUACGUUGA	-3.25 ± 0.15	-2.48 ± 0.15
GACCAGCAAUAUUACGCGAC	-2.3 ± 0.11	-1.04 ± 0.13
UACGAGCAAUAUUACGUUGC	-3.28 ± 0.32	-2.18 ± 0.33
AUGCAGCAAUAUUACGCUUG	-3.06 ± 0.12	-2.85 ± 0.18
ACUGAGCAAUAUUACGAGUA	–	-1.6 ± 0.2
UUGUAGCAAUAUUACGAGAA	-1.54 ± 0.3	-1.42 ± 0.3
UGCUAGCAAUAUUACGAAGG	-2.13 ± 0.16	-0.838 ± 0.34
GAAAAGCAAUAUUACGGUAU	-2.38 ± 0.11	-1.69 ± 0.14
GGUGAGCAAUAUUACGUGCG	-0.62 ± 0.12	-0.505 ± 0.18
UGUAAGCAAUAUUACGUUGG	-2.14 ± 0.14	-1.46 ± 0.18
AAGAAGCAAUAUUACGCGGG	-2.95 ± 0.2	-0.684 ± 0.11
GGCAAGCAAUAUUACGAUAU	-1.29 ± 0.073	-0.406 ± 0.096
